{"source": "FireProtDB (doi:10.1016/j.bpc.2020.106337)", "parents": {"B1": {"name": "non-specific serine/threonine protein kinase, O49003 (parent)", "chain": "MASKGAGGGGGGHEEPQRPKQQLPRDSRGSLEVFNPSSSSAAVEPPSAFRPAARSASPFIEEATGGIEDVGKATQRAAEWGLVLQTNEQTGRPQGVSARSSGGGGSARSSSDDKAVAGAIPRVSEELRAALSAFQQTFVVSDASRPGHPIMYASAGFFNMTGYTSKEVVGRNCRFLQGSGTDPAEIAKIRQALANGSNYCGRVLNYKKDGTAFWNLLTIAPIKDEEGRVLKFIGMQVEVSKYTEGNKDTVVRPNGLPESLIKYDARQKDQARSSVSELLLAIKNPRSLSESTNSTFKRKSQESVGALTGDRPGKRSSESGSRRNSKSGARTSLQKISEVPERGSKSRKSGLYSLMSLLGMGPGNIEKDMLKPRDEDPLLDSDDERPESFDDELRRKEMRRGIDLATTLERIEKNFVITDPRLPDNPIIFASDSFLQLTEYSREEILGRNCRFLQGPETDRATVRKIRDAIDNQTEVTVQLINYTKSGKKFWNLFHLQPMRDQKGDVQYFIGVQLDGTEHVRDAAEREGVMLIKKTAENIDEAAKELPDANLRPEDLWANHSKVVLPKPHMKDSASWRAIQKVLEGGENIDLKHFRPVKPLGSGDTGSVHLVELLNTGEYFAMKAMDKNVMLNRNKVHRANAEREILDMLDHPFLPTLYASFQTKTHICLITDYYPGGELFLLLDRQPLKVLREDAVRFYAAEVVIALEYLHCQGIIYRDLKPENILLHRDGHISLTDFDLSCLTSCRPQVFLPEEANKKSRRKSRSSPIFFAEPMRASNSFVGTEEYIAPEIITGAGHTSAVDWWALGILLYEMLYGYTPFRGKTRQRTFANILHKDIRFPASISVSLPARQLIYRLLHRDPSNRLGSYEGSNEIKEHPFFRGINWALVRGTAPPKLDAPLFPDDTDKGMGDAAAADTHTDMF"}}}
{"variants_of": "B1", "conditions": "Avena sativa; pH 4; Thermal; CD; Sodium acetate; transition: 2; reversible: partially reversible; structure 2V0U; whole UniProt chain shown", "units": {"Tm": "°C", "change of melting temperature, mutant - wild type (higher = more stable)": "°C"}}
{"variant": "C450A", "Tm": 51, "change of melting temperature, mutant - wild type (higher = more stable)": 0.7}
{"variants_of": "B1", "conditions": "Avena sativa; pH 4; Thermal; DSC; Sodium acetate; transition: 2; reversible: partially reversible; structure 2V0U; whole UniProt chain shown", "units": {"Tm": "°C", "change of melting temperature, mutant - wild type (higher = more stable)": "°C"}}
{"variant": "C450A", "Tm": 50.7, "change of melting temperature, mutant - wild type (higher = more stable)": 2.7}
{"variants_of": "B1", "conditions": "Avena sativa; pH 4; Thermal; fluorescence; Sodium acetate; transition: 2; reversible: partially reversible; structure 2V0U; whole UniProt chain shown", "units": {"Tm": "°C", "change of melting temperature, mutant - wild type (higher = more stable)": "°C"}}
{"variant": "C450A", "Tm": 49.9, "change of melting temperature, mutant - wild type (higher = more stable)": 2.8}
{"variants_of": "B1", "conditions": "Avena sativa; pH 7; 20 °C; Urea; fluorescence; sodium phosphate; transition: 2; reversible: no; structure 2V0U; whole UniProt chain shown", "units": {"ddG of mutation (higher = less stable)": "kcal/mol", "denaturant m value": "kcal/mol/M", "denaturant midpoint (higher = more stable)": "M", "unfolding free energy": "kcal/mol"}}
{"variant": "C450A", "ddG of mutation (higher = less stable)": -0.48, "denaturant m value": 1.67, "denaturant midpoint (higher = more stable)": 3.39, "unfolding free energy": 6.07}
{"variants_of": "B1", "conditions": "Avena sativa; pH 7; Thermal; CD; sodium phosphate; transition: 2; reversible: partially reversible; structure 2V0U; whole UniProt chain shown", "units": {"Tm": "°C", "change of melting temperature, mutant - wild type (higher = more stable)": "°C"}}
{"variant": "C450A", "Tm": 64.4, "change of melting temperature, mutant - wild type (higher = more stable)": 3.3}
{"variants_of": "B1", "conditions": "Avena sativa; pH 7; Thermal; DSC; sodium phosphate; transition: 2; reversible: partially reversible; structure 2V0U; whole UniProt chain shown", "units": {"Tm": "°C", "change of melting temperature, mutant - wild type (higher = more stable)": "°C"}}
{"variant": "C450A", "Tm": 65, "change of melting temperature, mutant - wild type (higher = more stable)": 3.1}
{"variants_of": "B1", "conditions": "Avena sativa; pH 7; Thermal; fluorescence; sodium phosphate; transition: 2; reversible: partially reversible; structure 2V0U; whole UniProt chain shown", "units": {"Tm": "°C", "change of melting temperature, mutant - wild type (higher = more stable)": "°C"}}
{"variant": "C450A", "Tm": 63.6, "change of melting temperature, mutant - wild type (higher = more stable)": 3.8}
{"variants_of": "B1", "conditions": "Avena sativa; pH 8; Thermal; CD; sodium phosphate; transition: 2; reversible: partially reversible; structure 2V0U; whole UniProt chain shown", "units": {"Tm": "°C", "change of melting temperature, mutant - wild type (higher = more stable)": "°C"}}
{"variant": "C450A", "Tm": 64.4, "change of melting temperature, mutant - wild type (higher = more stable)": 2.6}
{"variants_of": "B1", "conditions": "Avena sativa; pH 8; Thermal; DSC; sodium phosphate; transition: 2; reversible: partially reversible; structure 2V0U; whole UniProt chain shown", "units": {"Tm": "°C", "change of melting temperature, mutant - wild type (higher = more stable)": "°C"}}
{"variant": "C450A", "Tm": 63.8, "change of melting temperature, mutant - wild type (higher = more stable)": 3.7}
{"variants_of": "B1", "conditions": "Avena sativa; pH 8; Thermal; fluorescence; sodium phosphate; transition: 2; reversible: partially reversible; structure 2V0U; whole UniProt chain shown", "units": {"Tm": "°C", "change of melting temperature, mutant - wild type (higher = more stable)": "°C"}}
{"variant": "C450A", "Tm": 63.5, "change of melting temperature, mutant - wild type (higher = more stable)": 3.4}
{"variants_of": "B1", "conditions": "Avena sativa; pH 9; Thermal; DSC; glycine; transition: 2; reversible: partially reversible; structure 2V0U; whole UniProt chain shown", "units": {"Tm": "°C", "change of melting temperature, mutant - wild type (higher = more stable)": "°C"}}
{"variant": "C450A", "Tm": 66, "change of melting temperature, mutant - wild type (higher = more stable)": 4.2}
{"variants_of": "B1", "conditions": "Avena sativa; pH 9; Thermal; fluorescence; glycine; transition: 2; reversible: partially reversible; structure 2V0U; whole UniProt chain shown", "units": {"Tm": "°C", "change of melting temperature, mutant - wild type (higher = more stable)": "°C"}}
{"variant": "C450A", "Tm": 63.5, "change of melting temperature, mutant - wild type (higher = more stable)": 2.6}
